“And” between values parts separate entries of the source, which are not always exact repeats. Equal values may be shown once.
Experiments:
[1] = biological target: 鼠CLDN18.2(mCLDN18.2) (mouse) (UniProt P56857); experiment: cell ELISA on fixed mCLDN18.2+cell; background
[2] = biological target: 人CLDN18.2(hCLDN18.2) (human) (UniProt P56856); experiment: flow cytometry, CF633-labelled antibody 2.5μg/ml on hCLDN18.2+cell; background
[3] = biological target: 人CLDN18.2(hCLDN18.2) (human) (UniProt P56856); experiment: flow cytometry, CF488-labelled antibody 10μg/ml on hCLDN18.2+cell; range over the binding value and the time points
[4] = biological target: 人CLDN18.2(hCLDN18.2) (human) (UniProt P56856); experiment: flow cytometry, CF633-labelled antibody 10μg/ml on hCLDN18.2+cell; range over the binding value and the time points

UniProt P56857, sequence (P56857 other isoform, or with tags, fused parts or gaps, form in doubt): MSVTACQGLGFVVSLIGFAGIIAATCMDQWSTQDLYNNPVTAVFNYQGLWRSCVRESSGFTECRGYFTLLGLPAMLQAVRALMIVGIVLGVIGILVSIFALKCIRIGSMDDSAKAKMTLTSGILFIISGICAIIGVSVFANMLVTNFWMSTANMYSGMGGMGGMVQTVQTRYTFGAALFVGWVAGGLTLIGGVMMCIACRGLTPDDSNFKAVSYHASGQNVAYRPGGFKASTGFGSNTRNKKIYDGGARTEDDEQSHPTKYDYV

Emax [1]: 0.19
结合值 (FACS读值) [2]: 932
荧光强度值(本底) [3]: 1280 to 3480
荧光强度值(本底) [4]: 23.2 and 14.9
Substance: Neg IgG (和靶点没有结合的非特异性抗体) (antibody)

Source: patent CN111110862A
